From publication PMC4508897

Target: human wt Ecad-GFP (wild-type E-cadherin fused to EGFP) (human) (UniProt P12830)
Assay: TEM of gold nanoparticle

## human wt Ecad-GFP (wild-type E-cadherin fused to EGFP) (from UniProt P12830 23-882) (natural protein)
  percent of NPs at <15 nm from their nearest neighbour: 20.6%
